Molecular target: β5 integrin (human, ITGB5) (human)
Test: cell-based or functional assay

Work on “anti-β5 integrin subunit monoclonal antibody KN52 (eBiosciences)” yielded a % Inhibition of cell growth, SKBr3 cells, SRB assay, 5 days, antibody alone at 0.08 µg/ml (trastuzumab 0) of 30%, a % Inhibition of cell growth, SKBr3 cells, SRB assay, 5 days, antibody alone at 0.4 µg/ml (trastuzumab 0) of 43.7% and a % Inhibition of cell growth, SKBr3 cells, SRB assay, 5 days, antibody alone at 2 µg/ml (trastuzumab 0) of 52.6%. The % Inhibition of cell growth, SKBr3 cells, SRB assay, 5 days, antibody alone at 10 µg/ml (trastuzumab 0) was 71.5%, the % Inhibition of cell growth, SKBr3 cells, SRB assay, 5 days, antibody alone at 50 µg/ml (trastuzumab 0) was 76.2% and the Inhibition of cell proliferation, 184-A1 (normal breast cell line), 10 µg/ml, 4 days, vs isotype control was 0%. For the same substance, the Inhibition of cell proliferation, 231 (breast), 10 µg/ml, 4 days, vs isotype control was 23%, the Inhibition of cell proliferation, 435 (breast), 10 µg/ml, 4 days, vs isotype control was 33.7% and the Inhibition of cell proliferation, 453 (breast), 10 µg/ml, 4 days, vs isotype control was 24.9%. It also gave an Inhibition of cell proliferation, 468 (breast), 10 µg/ml, 4 days, vs isotype control of 44.3%, an Inhibition of cell proliferation, A172 (brain), 10 µg/ml, 4 days, vs isotype control of 90% and an Inhibition of cell proliferation, A549 (lung), 10 µg/ml, 4 days, vs isotype control of 60 to 80%. For the same substance, the Inhibition of cell proliferation, BT-474 (breast), 10 µg/ml, 4 days, vs isotype control was 0%, the Inhibition of cell proliferation, CaoV3 (ovary), 10 µg/ml, 4 days, vs isotype control was 45.9% and the Inhibition of cell proliferation, Colo205 (colon), 10 µg/ml, 4 days, vs isotype control was 27.2%. For the same substance, the Inhibition of cell proliferation, Du145 (prostate), 10 µg/ml, 4 days, vs isotype control was 17.1%, the Inhibition of cell proliferation, Du-4475 (breast), 10 µg/ml, 4 days, vs isotype control was 2.13% and the Inhibition of cell proliferation, H358 (lung), 10 µg/ml, 4 days, vs isotype control was 30.1%. The Inhibition of cell proliferation, H460 (lung), 10 µg/ml, 4 days, vs isotype control was 39.7%, the Inhibition of cell proliferation, HCC-1419 (breast), 10 µg/ml, 4 days, vs isotype control was 20.9% and the Inhibition of cell proliferation, HCC-1954 (breast), 10 µg/ml, 4 days, vs isotype control was 39.3%. The Inhibition of cell proliferation, HCT8 (colon), 10 µg/ml, 4 days, vs isotype control was 33%, the Inhibition of cell proliferation, HCT15 (colon), 10 µg/ml, 4 days, vs isotype control was 58.7% and the Inhibition of cell proliferation, HMEC C (normal human mammary epithelial cells), 10 µg/ml, 4 days, vs isotype control was 0%. It also gave an Inhibition of cell proliferation, MCF7 (breast), 10 µg/ml, 4 days, vs isotype control of 49.1%, an Inhibition of cell proliferation, PC3 (prostate), 10 µg/ml, 4 days, vs isotype control of 11.2% and an Inhibition of cell proliferation, SK-N-SH (brain), 10 µg/ml, 4 days, vs isotype control of 40%. For the same substance, the Inhibition of cell proliferation, SKBr3 (breast), 10 µg/ml, 4 days, vs isotype control was 26.2%, the Inhibition of cell proliferation, SW480 (colon), 10 µg/ml, 4 days, vs isotype control was 30.2% and the Inhibition of cell proliferation, SW620 (colon), 10 µg/ml, 4 days, vs isotype control was 48.5%. It also gave an Inhibition of cell proliferation, SW626 (ovary), 10 µg/ml, 4 days, vs isotype control of 29.7%, an Inhibition of cell proliferation, SW1783 (listed under colon), 10 µg/ml, 4 days, vs isotype control of 26.6% and an Inhibition of cell proliferation, Skov3 (ovary), 10 µg/ml, 4 days, vs isotype control of 15.1%. For the same substance, the Inhibition of cell proliferation, T47D (breast), 10 µg/ml, 4 days, vs isotype control was 30.9%.
